Measurements taken from the DeepSol protein solubility set.

assay: soluble on expression in E. coli; label from the status in PepcDB or PDB records

Sequence | soluble on expression in E. coli
GWLDLAPSTQVDTETSINVLSDIEFTLNGIYSTMQSSDAYSGRLVYYGDVTGDDMQAVSSTKRTGNYYRFNFTKDNGPSSHWSYLYSIIQNCNLILMNVDKLSIDEDETEYKNDLKGQALAIRGMALFDLTRIFGYPYLKDNGASLGVPIVKELSTIDSKPARNTVAECYTEIISDLKNSTELLSGDFNKGKVNRWAAMTLLSRVYLYKGEYNEALTMAENAIKGAEKEGYALWTNEEYPTAWGNDASASNPGEILFEIVNLTTDSPGKESMGYLNSYNGYDDMCITCSFYQLLKKDPKDVRLKILSFDKKYYAYVNKYQPQQGENITDANIPLIRLSEAYLNAAEAAVQTGDNAKAVKYLNSIVQRANPENSVEGKTLTLENVLDERRKELVAEGHRMYDVIRNGMTVKRIDVKDSDINKTKHNTAYMEYDWNFHKILLPIPKKEMDANPNMKQNPGYVD | soluble
MPSIRLADLAQQLDAELHGDGDIVITGVASMQSAQTGHITFMVNPKYREHLGLCQASAVVMTQDDLPFAKSAALVVKNPYLTYARMAQILDTTPQPAQNIAPSAVIDATAKLGNNVSIGANAVIESGVELGDNVIIGAGCFVGKNSKIGAGSRLWANVTIYHEIQIGQNCLIQSGTVVGADGFGYANDRGNWVKIPQIGRVIIGDRVEIGACTTIDRGALDDTVIGNGVIIDNQCQIAHNVVIGDNTAVAGGVIMAGSLKIGRYCMIGGASVINGHMEICDKVTVTGMGMVMRPITEPGVYSSGIPLQPNKVWRKTAALVMNIDDMSKRLKSLERKVNQQD | not soluble
MGHHHHHHSHMVTSITATANQMPANPPKTVFEFSTEINRTIEKDVMQAVVYSRKTGKQLPDLKKSVSLHLNKVIDNAKKQSDIELEANGVRNFVNYDNNNKPDGWVAEGRVYLKSKNFEALAKVLEQLDSEVAISDIYFSVSPEKAKTLENEMILDVLKQFKHKAEVVQAGLNAKNYVLTDVKLDTPNGNLDQFEVRSFAMMARSVRPASAKEELSLEPGKATLSARASGKVQFE | soluble
MSLAQDVVVGVSWSNFQEERWKTDEAAIKAELESKGAKYISADAQSSSAKQLSDVESLIAQGATALIILAQDAQAIGPAVQAAADEGIPVVGYDRLIEDSRAFYLTFDNVEVGRMQARAVLEAAPSGRYVMIKGSPTDPNADFLRGGQQEVLQAAIDKGDITIVGEAYTDGWLPANAQRNMEQILTATDNGVDAVVASNDGTAGGVVAALTAQGMEGLPVSGQDGDHAALNRVAKGTQTVSVWKDARDLGRAAARIAVSLAEGTQMNAIGGADDWTSPGGTKMNAMFLEPLPITKDNLSVVVDAGWITQETLCQGVTNGPAPCNEGHHHHHH | soluble
MEEGVNMDIRPTRIELIRTRRRIRLAKKGLDLLKMKRSALIYEFLQISRTIRGMKENLRKEVVEALNIIKVASVLEGSLALERIANMSSDSRINVNSRNVMGVNIPTLEVSYNLSILSDVYRTVSVPVAIDDSIRRFQKLFYDLILIVEKENSLRNLLMEIDRTKRRSNAIENILIPRLEYQAKMIKMTLDERERDTFTTLKTIKKKIEAENDLEHHHHHH | not soluble
MGSDKIHHHHHHMTEIKYKVITKDAFALPYTIIKAKNQPTKGVIVYIHGGGLMFGKANDLSPQYIDILTEHYDLIQLSYRLLPEVSLDCIIEDVYASFDAIQSQYSNCPIFTFGRSSGAYLSLLIARDRDIDGVIDFYGYSRINTEPFKTTNSYYAKIAQSINETMIAQLTSPTPVVQDQIAQRFLIYVYARGTGKWINMINIADYTDSKYNIAPDELKTLPPVFIAHCNGDYDVPVEESEHIMNHVPHSTFERVNKNEHDFDRRPNDEAITIYRKVVDFLNAITMV | not soluble
MLKHKIINLIQEKREGSYWDFKAEYHKDKAELLHDIICLSNNLLNQEAYLILGVADNGHILGVAGDSNRKNQEELISFITGKKFAAGRHPKISLMTFEYEEKEIDVIIINPKGYVPYYLERAETDQKSKKNKTVNAGSIYTRVEDKNTPIDSTASPLDTEILWKMHFGLYPTPIKRLQNYLLTPEKWMQNSTGYFHSESPEYIVYKNEDIEEKENYFNLVSPFYAYNQINSNTLYSYYEFKYHSTVLYGCRCISLDSGIYTTPVPELGEINFNMHRDDTIYYRYFIEETMLYNIHLFMYKGDSMEEKFAMDKFLECVLVYKSDVEKELFENYILDNWDKVNQSINENNKRVFGTEHLSQLEKEDITKKVKTVKVLKDELENFRTLEHHHHHH | not soluble
MRTIEFQAKQLLMEKLDKNLLDHAKSLTDGNGPQIVDVYGLQQLAEVHCYLKTTHQFDPAEVEALLQFADPLEAACHCWEMNTHEYSFPICDLLRETRARELFELAKPEPPAKLSVREQLRAAVKEARQNLAPEERTKGGEAR | not soluble
MKKRNSMKLASLTVLLAGTTLFTPGFTVKAESTQSISNSSKVHDQKNRNGWKQVMQETIKIGAPGVLAKTSNKGKISSYTAGVADLSTKKPVKSDYRFRIGSVTKTFTATTVLQLVGENRVQLDDSIEKWLPGLIQGNGYDGNQITIRQLLNHTSGIAEYLKSKDADIMNSKKTYTAEEIVKIGLALPSDFSPGKGWSYSNTGYVILGMLIEKITGNSYAEEIEKRIIEPLDLPNTFLPGNSPVIPGKNHARGYVKMEETGELKDITYYNPSLANAAGDMISNADDLNKFFSSLLGGKLLKERELKEMLTTVPIEGKGIGDGYGLGIYETKLPNGVSVWGHGGSIPGFMTFAGGVIGGKHTFAVNVNSLGPVDILTQFDKMMQVEFNK | not soluble
MWDVIVVGGGPSGLSAALFLARAGLKVLVLDGGRSKVKGVSRVPNYPGLLDEPSGEELLRRLEAHARRYGAEVRPGVVKGVRDMGGVFEVETEEGVEKAERLLLCTHKDPTLPSLLGLTRRGAYIDTDEGGRTSYPRVYAAGVARGKVPGHAIISAGDGAYVAVHLVSDLRGEPYKDHAL | soluble
MGHHHHHHSHMSNLTPESSPELAKKSWFGNFISLEKEEQIFVVIKDKPLSSIKADIVHAFLSIPSLSHSVISQTSFRAEYKATGGPAVFQKPVKFQVDITYTEGGEAQKENGIYSVTFTLLSGPSRRFKRVVETIQAQLLSTHDPLRPSTCQTPLTVWK | not soluble
MGSDKIHHHHHHMTETLVQVQKLAMDFPGQKLFNNLSFDVDRRDFLSIIGENGVGKTTLIRALLNQVKPTSGSIKFRKGTKVGYVPQFRNIERDYPLSIRDFVALNLQNGKMPWLSKMERTQLDEILEETDLVDIQNTRIGRASGGQKQKAYLAQALVDNPDLLILDESTASLDTVRKYELFNLVQHFNQQHDLTVISVTHDFDLMQRYSNRYLMLKEDHYALGEVADIKNEEDLLDV | not soluble
MGHHHHHHSHGESEDVTQFLQSHKKTLTNEKLFLMDGKRTWFLEMESTPGEDAMNTVKMTTKDLKYDRSLIDKAGFERTDSNFERSHTVGKMLSNSIMCYRDIFYERESQLMQQTSLLSYEIAIATPTFSNYYPDWSAPINIVARPSTSKKIMTC | not soluble
GPGSMPADEAQAPTQTEVYDRLKWNGWGVEDVQMQIDDENPLWVRHVDGKPIKNLLEFLYQEISGGVGPKEIPPLSPSIPLEKALAKLNKANINEAFMKDISAVLEKSQIRPDGKSRLCHIAGKNYRDLWRVRKGMVEHAPDCILLPNSHKDCVEIMRLAHKHNVVVIPFGGGTNVTGGVEADPFERARMIISVDMRRMNRMISIDRESRLATFETGVLGPDLDAQLFRHGFMLGHDPDSYIYSTLGGWIGARGSGAMSNQYGDIEDMVVAVKVATPTGIIETPTTSRTCGVDLNGLFIGSEGSFGIITEATIKLETIPETKLYEGYLFPTFEAGFSAFYTCTAKGIHPCTMRLYDEDDFRMSMAMSTTKHSFFQRLVSMGVKSFLERYRGWNLRRISLVIVGFEGTPDRVKFQRSETAAVFKQYGGVGVGRSAGATWQDKKYDLPYIRDFALSLSHWADVFETSVLYSQAIPCWRAVKAAVRQVWKEHGHRGWIGCHTAHQYKYGCCLYFTFASAQKDDMDMKIFLAIKKRATEAMLAHTGNLTHHHGIGYEHVPWMSRYMGPDALDLLFAVKQKVDPKNICNPGKLLPSPPRENESAAALKARQQRELMFDKMGVPGAVASHI | not soluble
MGSDKIHHHHHHMYSIVEGDRVLEIGFMEHFMFLDFPTLVDIPIGLPKKGERECDRLTRRILSKRAASVFTVPCRVAVYRESYEDALRVNRECQGKGFPVQFWHIVEKVREVDVFLRSYPDLSDQIRESHPELCFLRISSKMMKSKHTREGLNQRIEILREHLVFDVENLQRICREYRIHIHDVLDSLVLALAQQFPLERIPEDPPLDEHGLPMQIIAPARTQRSPNPE | not soluble
MEKASSPEKWLAKVSVTLTKAKPDEIWPLFTDFFNLHKWLPTLATCHGVHGNNGEQGCIRFCSGFSIGSNGVDSAARWSKEKLVAVNPVERVMRYEIVESNTGFESYVSTVKILPRGEDGCVIEWSFTVDPVRGLSLENLVKKYEKALEIITKNMEEDALRRRESSS | soluble
MTMHREPGGERYYYTWAWFEGPDDAAWRVTGHHTDSGEQYRLDWNLAERSLCVTDSLGRTRCHWWDAQGLVTAYRDEAGQMTTFRWSDEERLLLGMTDAQGGKWRYVYDRLGHLTETHDPLGRVEQTQWHPVWHQPETEVDAAGAAWRYEYDERGNLQAVSDPLHQRTVYGYDRHGQVVRITDARGGDKYLQWNEDGQLMRHTDCSGSQTAWFYDERTRLERVTDAESNSTRYSYDGNGHLTEVMFADGRTERYQPDAAGRLVKYTSPAGQITRWQRDGQGRVRRQTDATGRRTAYEYDAYGRLTTLTNENGESYRFRYDVLDRLTEQTDPGGSRRAYGYNALNAVTAVIYGGERGGEIRHGLERDAAGRLTAKTTPETRTEYRYDAADRLLEIRRRRHDAAEGGEPEVIRFSYDSAGNLLSEETAQGVLQHRYDVQGNRTETQMPDGRTLRYLYYGSGHLQQINLGRDVISEFTRDHLHREVQRSQGRLDTRRMYDRTGRLTRKPTCKGMRGVVPETFIDREYAYSGQDELLKKRHSRQGVTDYFYDTTGRITACRNEAYLDSWQYDAAANLLDRRQGETAQAGAGSVVPFNRITSYRGLHYRYDEYGRVVEKRGRNGTQHYRWDAEHRLTEVAVIRGSTVRRYGYVYDAPGRRVEKHELDAEGKPYNRTTFLWDGMRLAQECRLGRSSSLYIYSDQGSHEPLARVDRAAPGEADEVLYYHTDVNGAPEEMTDGRGNIVWEAGYQVWGNLTHEKETRPVQQNLRFQGQYLDRETGLHYNLYRFYDPDIGKFISGDPISIRGGINLYQYAPNPIKWIDPLGLYNGEGQRELGKYHVFHEHNLDITEYGLSDAEHFSRGNQAIYERMKNDPAFRREMQTKYPGVVEHVQPSSGGKFSTESPPGLTWHHENKPGVLSLVDRLDHKTYHKIYHPLEHHHHHH | soluble
MGSDKIHHHHHHMHEAVARMLAKYEPKSVDDSVRALREIIQEVALLGLWRSKFFEHAAFYGGTALRILYGLDRFSENLDFSLLEPSPDFNLARYTASLEEELSAFGFNVRVEMVGKAVESAVQSAFLKANTRNELLVIETGGELAGQVAAGQVLKVKIEVDTDPPTGFTTSTRYLLQPIPFAVRSYSLPDLFAGKMHALLFRRWKNRVKGRDWYDFVWYAANHPQLNLAHLEQRMRQTGHWSGDLPLSAAAFRELLSDSIDRLDVDQARNDVAPFVKDQQALALWSHDFFRDVARRVQTDEG | not soluble
MTTCLLDIDQQQSVLGAGYHEPRAYSPYGGMRVVPVSALAFCGQHLDPLTGSYPLGNGHRFYRPSLRRFISPDVLSPFGKGGLNAYAYCQGDPVNFADPSGRFPAIIAPVRNLVTGVINLGISAVKMYRNYRTGRDFALNSGYPASRSGVFTYGTSEHAVARWSVADKVVSAAGGISASLSIGTATARLITPESEVLAWVDFGVASFATVLSAYELYGLATSSAERRYPIQPVAYEIRTGVQPLEHHHHHH | soluble
MGSDKIHHHHHHMALASTLATCLNSKNTQYDIIHHPYTLSSMATAEAAHIPGDRLAKTLLLEDEMGYVAAVIPSNHHLHMAALCEQTGRKLVLAHEDEIREVFKDCDLGAIPPVAMAYGMQTYVDDSLMKHPDVYFEAGDHQELVHMSMDQFSSLMSDAEQGHFSRRMM | not soluble
